Results as given in patent US20180171001A1.

How the values were obtained:
[1] = molecular target: Env of HIV-1 strain YU2.DG (HIV-1)
[2] = molecular target: SC4226618 (Human immunodeficiency virus 1)
[3] = molecular target: Tro11 (Human immunodeficiency virus 1)

## chimeric IgG: 8ANC195 HC paired with the LC from 3BNC117 (antibody)
[1]
  IC50 (fold change over 8ANC195 IgG), pseudovirus neutralization [panel B]: 12 fold
[2]
  IC50 (fold change over 8ANC195 IgG), pseudovirus neutralization [panel B]: 32 fold
[3]
  IC50 (fold change over 8ANC195 IgG), pseudovirus neutralization [panel B]: 17 fold
